This note sets out measurements from article PMC3564914, “Transcriptome analysis of bitter acid biosynthesis and precursor pathways in hop (Humulus lupulus)” (BMC Plant Biology, 2013).

As a reminder, the Km is the substrate concentration at which the rate is half of its maximum. One may read the Vmax as the rate approached at saturating substrate.

What all share (test): purified protein
Holding throughout (format): biochemical, Humulus lupulus

Substrate in series [1]: CC[C@H](C)C(=O)C(=O)O
To be noted: anabolic direction, 2 mM glutamate, 50 μM PLP, 100 mM ammonium chloride, Tris HCl pH 8.5, 22°C.

Substrate in series [2]: CC(C)CC(=O)C(=O)O
The note with it: anabolic direction, 2 mM glutamate, 50 μM PLP, 100 mM ammonium chloride, Tris HCl pH 8.5, 22°C.

Substrate in series [3]: O=C(O)CCC(=O)C(=O)O
The note with it: catabolic direction, 2 mM leucine, 50 μM PLP, Tris HCl pH 8.5, 22°C.

Substrate in series [4]: CC(C)[C@H](N)C(=O)O
The note with it: catabolic direction, 2 mM 2-oxoglutarate, 50 μM PLP, Tris HCl pH 8.5, 22°C.

Substrate in series [5]: CC[C@H](C)[C@H](N)C(=O)O
To be noted: catabolic direction, 2 mM 2-oxoglutarate, 50 μM PLP, Tris HCl pH 8.5, 22°C.

Substrate in series [6]: CC(C)C[C@H](N)C(=O)O
To be noted: catabolic direction, 2 mM 2-oxoglutarate, 50 μM PLP, Tris HCl pH 8.5, 22°C.

Substrate in series [7]: N[C@@H](CCC(=O)O)C(=O)O
To be noted: anabolic direction, 0.5 mM ketoisovalerate, 50 μM PLP, 100 mM ammonium chloride, Tris HCl pH 8.5, 22°C.

Substrate in series [8]: CC(C)C(=O)C(=O)O
To be noted: anabolic direction, 2 mM glutamate, 50 μM PLP, 100 mM ammonium chloride, Tris HCl pH 8.5, 22°C.

B1: HlBCAT1 (Humulus lupulus) (protein)
chain: SSTSLAKSSLKQSCELSCKSNTEPSNMDWDKLGFKLMPTDYVYSMKCSNEGNFEQGRLELHGNIELSPAAAVLNYGQGIFEGTKAYRKEDGSLLLFRPDQNGVRMRIGAERMCMPSPSVDQFVDAVKQTAIANRRWVPPSGKGSLYIRPLLMGTGAVLGVAPAPQYTFLAYASPVGNYFKEGLAPLRLYVEDEFDRASPGGTGFVKTIGNYSRCLAALSRAKNKGFSDVLFLDSVHKKYVEELSSCNIFIVQGNQISTPAANGTILSGVTRSSIIEIARDHGFKVEERKIAVDELMEAEEVFCTGTAVGVASVGSITYHNKRVEFKTGSQSVSQKFYSTLIGIQTGVVEDKKGWIVEID
notes: N-terminal vector His tag (pHIS8/GW), E. coli BL21(DE3) Rosetta2 pLysS, Talon purified
As to B1, the Km stood at 99 ± 10.75 µM in “purified protein [1]”; 35 ± 3.27 µM in the series “purified protein [2]”; 30 ± 5.39 µM in the series “purified protein [3]”; 340 ± 90.94 µM in “purified protein [4]”; 230 ± 26.94 µM in “purified protein [5]”; 40 ± 9.20 µM in the series “purified protein [6]”. Besides, the Km in the series “purified protein [7]” came to 720 ± 55.59 µM; in the series “purified protein [8]”, 99 ± 6.53 µM. In addition, the Vmax in the series “purified protein [1]” is 2.95 µmol/min/mg; in “purified protein [2]”, 4.5 µmol/min/mg; in the series “purified protein [3]” it was 4.5 µmol/min/mg; in the series “purified protein [4]”, 12.6 µmol/min/mg; in the series “purified protein [5]”, 19.4 µmol/min/mg; in the series “purified protein [6]”, 4.84 µmol/min/mg. The maximum rate (Vmax) in the series “purified protein [7]” was determined as 5.59 µmol/min/mg; in “purified protein [8]”, 4.23 µmol/min/mg.

B2: HlBCAT2 (Humulus lupulus) (protein)
chain: NATLSDTYSETVELADIDWDNLGFGFLPTDYMYNMKCAQGESFSNGELQRFGNIELSPSAGVLNYGQGLFEGLKAYRKEDGNILLFRPEENALRMRLGAERMCMPSPTVDQFVDAVKATVLANKRWIPPVGKGSLYIRPLLMGSGAVLGLAPAPEYTFLIYVSPVGNYFKEGVAPIHLIVEDNLHRATPGGTGGVKTIGNYAAVLKAQSAAKEQGYSDVLYLDCVHKKYLEEVSSCNIFVVKGNLIFTPAIKGTILPGITRKSIIDVARTLGFQVEERLVHVDELLDADEVFCTGTAVVVSPVGSITYHGERVPYNEGGVGAVSQQLYSALTRLQMGFIKDNMNWTVELS
notes: as for B1
Turning to B2, the Km was 160 ± 11.63 µM in the series “purified protein [1]”; 120 ± 11.43 µM in “purified protein [2]”; 210 ± 58.86 µM in “purified protein [3]”; 130 ± 27.74 µM in the series “purified protein [4]”; 250 ± 41.07 µM in “purified protein [5]”; 280 ± 69.56 µM in “purified protein [6]”. Also, the results for the Km in “purified protein [7]” and in the series “purified protein [8]” were 690 ± 88.51 µM and 200 ± 11.72 µM, respectively. For the same protein, the Vmax in “purified protein [1]” is 84.7 µmol/min/mg; in “purified protein [2]” it was 119 µmol/min/mg; in “purified protein [3]”, 36.9 µmol/min/mg; in “purified protein [4]” it was 23.3 µmol/min/mg; in the series “purified protein [5]”, 88.1 µmol/min/mg; in “purified protein [6]”, 43.4 µmol/min/mg. Besides, the Vmax in “purified protein [7]” amounted to 136 µmol/min/mg; in the series “purified protein [8]”, 96.4 µmol/min/mg.
